In patent US20200023080A1, “COMPOSITIONS AND METHOD FOR THE TREATMENT AND DETECTION OF COLON CANCER” (priority 2015, published 2020):
Positions of bridges follow the written chain, without caps; N, C: chain ends. Non-standard residues stand in square brackets, D forms with d. No end group written: not given here. Cy5.5 = cyanine dye Cy5.5, conjugated via NHS ester; Cy3 = cyanine dye Cy3, conjugated via NHS ester

Experiments:
[1] = molecular target: GC-C receptor (Homo sapiens, UniProt P25092); test: Binding of dye-conjugated SP-333 to GC-C receptors (method not specified)
Chain of GC-C receptor (P25092 24-1073): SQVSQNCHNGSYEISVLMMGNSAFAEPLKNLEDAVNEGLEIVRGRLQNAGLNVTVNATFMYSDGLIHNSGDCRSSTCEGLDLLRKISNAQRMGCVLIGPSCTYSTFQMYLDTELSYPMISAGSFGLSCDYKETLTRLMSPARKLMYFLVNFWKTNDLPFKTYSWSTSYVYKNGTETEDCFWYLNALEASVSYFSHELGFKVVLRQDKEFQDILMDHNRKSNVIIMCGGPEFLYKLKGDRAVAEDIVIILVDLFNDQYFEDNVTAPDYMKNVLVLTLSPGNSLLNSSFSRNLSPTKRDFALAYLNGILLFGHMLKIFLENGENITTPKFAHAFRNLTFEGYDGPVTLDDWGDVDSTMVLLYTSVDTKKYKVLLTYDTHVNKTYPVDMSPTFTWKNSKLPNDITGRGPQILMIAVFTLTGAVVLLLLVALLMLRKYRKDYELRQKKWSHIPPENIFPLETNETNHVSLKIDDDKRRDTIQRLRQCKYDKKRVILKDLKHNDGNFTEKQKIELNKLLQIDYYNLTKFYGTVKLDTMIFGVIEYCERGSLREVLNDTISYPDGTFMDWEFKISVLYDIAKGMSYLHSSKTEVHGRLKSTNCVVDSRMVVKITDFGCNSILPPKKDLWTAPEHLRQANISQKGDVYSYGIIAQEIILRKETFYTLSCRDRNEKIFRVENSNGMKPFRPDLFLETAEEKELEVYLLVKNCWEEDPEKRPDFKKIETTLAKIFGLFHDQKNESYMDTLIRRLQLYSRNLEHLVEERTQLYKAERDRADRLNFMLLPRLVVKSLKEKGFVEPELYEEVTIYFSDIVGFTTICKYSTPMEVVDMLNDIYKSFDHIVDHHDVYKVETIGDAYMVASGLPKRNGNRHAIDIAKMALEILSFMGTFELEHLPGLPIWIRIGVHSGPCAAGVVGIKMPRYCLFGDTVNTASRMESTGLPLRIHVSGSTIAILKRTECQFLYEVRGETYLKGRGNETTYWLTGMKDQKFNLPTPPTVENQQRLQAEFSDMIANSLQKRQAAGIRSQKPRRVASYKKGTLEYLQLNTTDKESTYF
Excerpt: (§1) SP-333 was labeled with an appropriate infrared (IR) fluorescence dye for in vivo imaging purposes. The peptide was to be labeled with an appropriate IR dye through the reaction of a N-hydroxysuccinamidyl (NHS) activated ester with the amine group of the peptide. Our initial test with the VivoTag680 NHS ester supplied by PerkinElmer, Inc was not successful. […] Labeling SP-333 with Cy3 and the subsequent HPLC purification was successful, with an overall labeling efficiency of 30% achieved. […] Both Cy3 and Cy5.5 belong to a family of cyanine fluorescence dyes used in bioimaging applications. […] We performed similar binding experiments with the cell membranes isolated from T84 cells and from rat intestinal tissues. […] Thus, SP-333-IR680 fluorescence was custom synthesized.

[2] = molecular target: T1, GC-C receptors expressed on the surface of T84 cells (Homo sapiens, UniProt P25092); test: Binding of Cy3/Cy5.5 probes to T84 cells
T1 construct: endogenous in cells; host or cells: T84 cells, intact or as isolated cell membranes
T1 sequence (P25092 24-1073): as above
Excerpt: as §1

[3] = molecular target: T2, cell membranes isolated from T84 cells (Homo sapiens, UniProt P25092); test: Binding of Cy3/Cy5.5 probes to cell membranes isolated from T84 cells
T2 construct: endogenous in cells; host or cells: T84 cells, intact or as isolated cell membranes
T2 sequence (P25092 24-1073): as above
Excerpt: as §1

[4] = molecular target: T3, cell membranes isolated from rat intestinal tissues (Rattus norvegicus, UniProt P23897); test: Binding of Cy3/Cy5.5 probes to cell membranes from rat intestinal tissues
T3 construct: cell membranes isolated from T84 cells and from rat intestinal tissues; from tissue; host or cells: rat intestinal tissue membranes
T3 sequence (P23897 23-1072): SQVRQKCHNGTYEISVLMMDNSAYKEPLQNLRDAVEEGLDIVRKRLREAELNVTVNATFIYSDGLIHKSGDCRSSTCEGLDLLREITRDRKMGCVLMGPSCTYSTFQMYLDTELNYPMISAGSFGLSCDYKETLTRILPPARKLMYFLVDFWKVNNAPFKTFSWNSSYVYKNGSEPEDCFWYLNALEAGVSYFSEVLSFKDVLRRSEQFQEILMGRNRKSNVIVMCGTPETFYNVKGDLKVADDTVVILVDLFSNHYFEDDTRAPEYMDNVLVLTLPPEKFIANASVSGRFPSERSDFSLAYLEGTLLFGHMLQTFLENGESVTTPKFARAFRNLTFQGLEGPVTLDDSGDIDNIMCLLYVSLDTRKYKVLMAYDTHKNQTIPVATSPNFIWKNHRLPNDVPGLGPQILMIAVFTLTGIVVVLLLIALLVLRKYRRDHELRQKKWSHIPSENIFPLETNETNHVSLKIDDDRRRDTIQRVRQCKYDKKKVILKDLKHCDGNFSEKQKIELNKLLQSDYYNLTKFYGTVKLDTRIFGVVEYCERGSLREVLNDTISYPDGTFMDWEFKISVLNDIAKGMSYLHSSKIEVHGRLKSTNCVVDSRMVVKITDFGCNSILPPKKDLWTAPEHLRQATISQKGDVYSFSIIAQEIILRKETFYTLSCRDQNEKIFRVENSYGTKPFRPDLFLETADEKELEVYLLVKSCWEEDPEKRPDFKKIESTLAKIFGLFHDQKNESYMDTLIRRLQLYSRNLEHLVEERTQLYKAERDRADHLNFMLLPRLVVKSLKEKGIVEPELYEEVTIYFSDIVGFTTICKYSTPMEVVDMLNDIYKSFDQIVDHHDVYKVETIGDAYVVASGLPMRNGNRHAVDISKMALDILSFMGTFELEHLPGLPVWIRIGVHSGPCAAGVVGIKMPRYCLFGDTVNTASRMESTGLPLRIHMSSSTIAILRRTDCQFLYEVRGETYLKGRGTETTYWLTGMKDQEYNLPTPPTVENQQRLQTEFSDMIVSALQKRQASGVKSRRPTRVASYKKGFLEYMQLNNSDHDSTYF
Excerpt: as §1

[5] = test system: rat intestinal fragments; test: Ex vivo binding of Cy3/Cy5.5 probes with rat intestinal fragments
Excerpt: as §1

[6] = molecular target: T4, Guanylate cyclase C (GC-C) receptor expressed on human T84 cells (human, UniProt P25092 24-1073); test: competition of unlabeled SP-333 against IR680-SP-333 probe binding on T84 cells
T4 construct: whole, on cells; also called GC-C receptors
T4 sequence (P25092 24-1073): as the sequence (P25092 24-1073) above

[7] = molecular target: T5, GC-C receptor in rat intestinal tissues (rat, UniProt P23897 23-1072); test: binding to cell membranes from rat intestinal tissues; ex vivo binding with rat intestinal fragments
T5 construct: whole, on cells; the protein target is inferred from the preceding sentence on GC-C receptors; also called cell membranes from rat intestinal tissues; rat intestinal fragments
T5 sequence (looked up): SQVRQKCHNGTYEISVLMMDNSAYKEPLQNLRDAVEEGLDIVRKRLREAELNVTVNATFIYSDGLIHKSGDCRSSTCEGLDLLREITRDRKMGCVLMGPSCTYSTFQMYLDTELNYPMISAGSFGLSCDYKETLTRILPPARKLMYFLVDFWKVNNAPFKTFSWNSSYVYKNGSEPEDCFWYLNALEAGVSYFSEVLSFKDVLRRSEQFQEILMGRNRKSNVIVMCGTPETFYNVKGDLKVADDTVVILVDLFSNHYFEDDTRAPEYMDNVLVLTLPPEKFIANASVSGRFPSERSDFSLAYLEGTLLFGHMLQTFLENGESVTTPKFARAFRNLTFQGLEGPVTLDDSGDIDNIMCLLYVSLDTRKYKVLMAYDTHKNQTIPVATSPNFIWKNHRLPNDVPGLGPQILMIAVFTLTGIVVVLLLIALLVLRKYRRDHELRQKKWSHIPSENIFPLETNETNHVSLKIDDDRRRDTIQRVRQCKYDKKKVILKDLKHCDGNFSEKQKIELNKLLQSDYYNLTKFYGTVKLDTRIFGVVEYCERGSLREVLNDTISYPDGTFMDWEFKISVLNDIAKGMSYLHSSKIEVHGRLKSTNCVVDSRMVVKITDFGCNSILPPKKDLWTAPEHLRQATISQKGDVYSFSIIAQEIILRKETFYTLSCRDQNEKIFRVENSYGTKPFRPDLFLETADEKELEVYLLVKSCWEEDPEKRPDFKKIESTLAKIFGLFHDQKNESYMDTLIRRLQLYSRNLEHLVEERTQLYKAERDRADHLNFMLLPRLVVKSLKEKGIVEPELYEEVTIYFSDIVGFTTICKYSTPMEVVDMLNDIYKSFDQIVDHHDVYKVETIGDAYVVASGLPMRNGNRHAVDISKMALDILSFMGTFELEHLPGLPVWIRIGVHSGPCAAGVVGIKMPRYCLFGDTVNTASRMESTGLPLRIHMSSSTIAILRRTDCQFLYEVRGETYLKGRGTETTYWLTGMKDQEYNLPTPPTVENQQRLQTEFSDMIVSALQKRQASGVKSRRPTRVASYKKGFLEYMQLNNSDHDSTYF

Molecule	binding to GC-C receptors after conjugation of dye to the N-terminal of SP-333 [1]	specific binding to GC-C receptors on the surface of T84 cells [2]	specific binding to cell membranes isolated from T84 cells [3]	specific binding to cell membranes isolated from rat intestinal tissues [4]	specific binding in ex vivo binding with rat intestinal fragments [5]	IC50 [6] [nM]	binding result [7]
Cy5.5-SP-333: SP-333 conjugated with cyanine fluorescence dye Cy5.5 NHS ester ({Cy5.5}-[dN]DECELCVNVACTGC[dL]; disulfide 4-12, 7-15)	without appreciable loss	failed to exhibit specific binding	did not show any specific binding	did not show any specific binding	lack of specific binding		
Cy3-SP-333: SP-333 conjugated with cyanine fluorescence dye Cy3-NHS ester (Cy3-[dN]DECELCVNVACTGC[dL]; disulfide 4-12, 7-15)	without appreciable loss	failed to exhibit specific binding	did not show any specific binding	did not show any specific binding	lack of specific binding		
[dN]DECELCVNVACTGC[dL] (disulfide 4-12, 7-15, Synthetic analog of uroguanylin; also called Api 1251) [SP-333 (dolcanatide), unlabeled]						~1600	
Cy3-[dN]DECELCVNVACTGC[dL] (disulfide 4-12, 7-15) [Cy3-SP-333]							no binding
{Cy5.5}-[dN]DECELCVNVACTGC[dL] (disulfide 4-12, 7-15) [Cy5.5-SP-333]							no binding
